Assay results: WO2008112290A2 (dated 2008)

Biological target: T1, Human EphB4 (Genbank ID No. NP_004435) (human, UniProt P54760 16-987, limits assumed)
T1 construct: Detected as denatured protein on Western blot (MAb265), on tissue sections (MAb131) and by immunoprecipitation (MAb47); also called EphB4 receptor
T1 sequence: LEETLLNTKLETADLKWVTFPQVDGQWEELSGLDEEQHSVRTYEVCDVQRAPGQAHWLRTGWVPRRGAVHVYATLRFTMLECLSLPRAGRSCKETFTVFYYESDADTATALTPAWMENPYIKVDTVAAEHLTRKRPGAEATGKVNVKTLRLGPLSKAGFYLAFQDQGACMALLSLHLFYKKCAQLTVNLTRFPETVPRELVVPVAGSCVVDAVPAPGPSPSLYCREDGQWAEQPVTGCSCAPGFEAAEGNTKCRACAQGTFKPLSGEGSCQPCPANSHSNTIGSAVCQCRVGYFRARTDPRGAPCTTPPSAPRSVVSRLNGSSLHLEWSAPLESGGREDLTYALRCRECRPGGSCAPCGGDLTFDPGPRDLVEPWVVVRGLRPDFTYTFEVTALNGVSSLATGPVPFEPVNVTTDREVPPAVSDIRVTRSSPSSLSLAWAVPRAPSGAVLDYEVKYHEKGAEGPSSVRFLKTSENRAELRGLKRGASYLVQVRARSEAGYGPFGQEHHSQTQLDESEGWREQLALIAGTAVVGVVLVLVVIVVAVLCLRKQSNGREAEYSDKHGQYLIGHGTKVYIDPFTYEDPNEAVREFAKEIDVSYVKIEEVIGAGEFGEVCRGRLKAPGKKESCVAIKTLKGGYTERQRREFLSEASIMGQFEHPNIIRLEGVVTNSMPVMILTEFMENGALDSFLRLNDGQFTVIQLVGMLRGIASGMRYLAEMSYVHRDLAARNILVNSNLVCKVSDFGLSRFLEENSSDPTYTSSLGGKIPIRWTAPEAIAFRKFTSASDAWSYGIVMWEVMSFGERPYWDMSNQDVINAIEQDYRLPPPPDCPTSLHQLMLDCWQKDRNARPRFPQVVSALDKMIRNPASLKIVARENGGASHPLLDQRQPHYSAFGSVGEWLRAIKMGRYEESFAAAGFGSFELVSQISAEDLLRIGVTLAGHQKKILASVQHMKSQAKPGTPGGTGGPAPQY
Test: Western blot

B1: mouse monoclonal antibody 265 (antibody, V domains shown)
VH: QQSGAELARPGASVKLSCKASGYTFTSYWMQWVKQRPGQGLEWIGAIYPGDGDTRYTQKFKGKATLTADKSSSTAYMQLSTLASEDSAVYYCARVGGWLLLAYWGQGTTVT
VL: DIVMTQSPSSLAMSVGQKVTMNCKSSQSLLNSNTQKNYLAWYQQKPGHSPKLLVYLSSTRESGVPDRFIGSGSGTDFTLTISSVQAEDLADYFCQQHYTTPLTFGAGTKLELKR
notes: Mouse monoclonal from a hybridoma; also called MAb265; MAB265
  binding result: binds
